# Assay results: the RNAGym collection of RNA variant scans (doi:10.1093/nar/gkz1192)
# B1: CPEB3 Ribozyme (parent)
# chain: UAACAGGGGGCCACAGCAGAAGCGUUCACGUCGCAGCCCCUGUCAGAUUCUGGUGAAUCUGCGAAUUCUGCUGUAUAUCUC
# Variants of: B1
# Assay: self-cleavage, relative activity (ratio to wild type); higher = more cleavage; in vitro, sequencing
# Procedure, shortened: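 Barcoded CPEB3 ribozyme mutants, produced by rounds of error-prone PCR, self-cleaved while being transcribed with T7 RNA polymerase for 5 hours at 37°C and during a subsequent 15 min DNase I step before EDTA was added. Sequencing of template-switched cDNA on Illumina gave cleaved and total reads, and DNA sequencing assigned barcodes to variants. Each variant's relative activity is its cleaved/total read fraction divided by the unmutated ribozyme's fraction, averaged across three batches. A variant needed a minimum of 5 reads.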
row,Variant,self-cleavage
1,U41A U48G,0.37
2,U41A U49A,0.23
3,U41A U49C,0.23
4,U41A U51A,0.36
5,U41A U51C,0.31
6,U41A U51G,0.42
7,U41A U54A,0.27
8,U41A U54C,0.29
9,U41A U54G,0.22
10,U41A U58A,0.22
11,U41A U58C,0.23
12,U41A U58G,0.23
13,U41A U60A,0.25
14,U41A U60C,0.26
15,U41A U60G,0.23
16,U41A U66A,0.27
17,U41A U66C,0.23
18,U41A U66G,0.18
19,U41A U67A,0.36
20,U41A U67C,0.21
21,U41A U67G,0.18
22,U41A U69A,0.14
23,U41A U69C,0.24
24,U41A U69G,0.33

row,Variant,self-cleavage
1,U41A U72A,0.23
2,U41A U72C,0.28
3,U41A U72G,0.21
4,U41A U74A,0.29
5,U41A U74C,0.4
6,U41A U76A,0.16
7,U41A U76C,0.27
8,U41A U76G,0.22
9,U41A U78A,0.25
10,U41A U78C,0.26
11,U41A U78G,0.13
12,U41A U80A,0.28
13,U41A U80C,0.32
14,U41A U80G,0.41
15,U41C,1.09
16,U41C A45C,0.53
17,U41C A45G,0.92
18,U41C A45U,0.68
19,U41C A47C,0.46
20,U41C A47G,1
21,U41C A47U,0.61
22,U41C A56C,0.64
23,U41C A56G,0.94
24,U41C A56U,0.75

row,Variant,self-cleavage
1,U41C A57C,0.58
2,U41C A57G,1
3,U41C A57U,0.78
4,U41C A64C,0.46
5,U41C A64G,0.77
6,U41C A64U,0.4
7,U41C A65C,0.4
8,U41C A65G,0.53
9,U41C A65U,0.48
10,U41C A75C,1.15
11,U41C A75G,1.09
12,U41C A75U,1.18
13,U41C A77C,1.09
14,U41C A77G,1.17
15,U41C A77U,1.17
16,U41C C44A,0.39
17,U41C C44U,0.53
18,U41C C50A,0.94
19,U41C C50G,0.96
20,U41C C50U,1.08
21,U41C C59A,0.27
22,U41C C59U,0.89
23,U41C C62A,0.19
24,U41C C62G,0.15

row,Variant,self-cleavage
1,U41C C62U,0.17
2,U41C C68G,0.39
3,U41C C68U,1.09
4,U41C C71A,0.33
5,U41C C71G,0.4
6,U41C C71U,0.76
7,U41C C79A,1.21
8,U41C C79U,1.26
9,U41C C81A,1.19
10,U41C C81U,1.19
11,U41C G42A,0.23
12,U41C G42C,0.23
13,U41C G46C,0.42
14,U41C G46U,0.34
15,U41C G52A,1.18
16,U41C G52C,1.12
17,U41C G52U,1.03
18,U41C G53A,1.13
19,U41C G53C,1.13
20,U41C G55A,0.93
21,U41C G55U,1.17
22,U41C G61A,0.34
23,U41C G61C,0.21
24,U41C G61U,0.62

row,Variant,self-cleavage
1,U41C G63A,0.89
2,U41C G63C,1.06
3,U41C G63U,1.13
4,U41C G70A,0.62
5,U41C G70U,0.5
6,U41C G73A,1.23
7,U41C G73C,1.25
8,U41C G73U,1.28
9,U41C U43A,0.72
10,U41C U43C,0.46
11,U41C U48A,0.6
12,U41C U48C,0.71
13,U41C U48G,0.55
14,U41C U49A,0.89
15,U41C U49C,0.5
16,U41C U51A,1.06
17,U41C U51C,1.08
18,U41C U51G,0.81
19,U41C U54A,1.11
20,U41C U54C,1.03
21,U41C U54G,0.88
22,U41C U58A,0.47
23,U41C U58C,0.58
24,U41C U58G,0.41

row,Variant,self-cleavage
1,U41C U60A,0.68
2,U41C U60C,0.55
3,U41C U60G,0.42
4,U41C U66A,0.62
5,U41C U66C,0.49
6,U41C U66G,0.58
7,U41C U67A,0.53
8,U41C U67C,0.33
9,U41C U67G,0.3
10,U41C U69A,0.67
11,U41C U69C,0.57
12,U41C U69G,0.79
13,U41C U72A,0.79
14,U41C U72C,1.11
15,U41C U72G,0.92
16,U41C U74A,1.22
17,U41C U74C,1.23
18,U41C U74G,1.21
19,U41C U76A,1.17
20,U41C U76C,1.05
21,U41C U76G,1.05
22,U41C U78A,1.13
23,U41C U78C,1.06
24,U41C U78G,1.23

row,Variant,self-cleavage
1,U41C U80A,1.15
2,U41C U80C,1.04
3,U41C U80G,1.29
4,U41G,0.29
5,U41G A45G,0.25
6,U41G A45U,0.17
7,U41G A47G,0.37
8,U41G A56G,0.22
9,U41G A56U,0.25
10,U41G A57C,0.11
11,U41G A57G,0.23
12,U41G A64G,0.26
13,U41G A64U,0.14
14,U41G A65G,0.35
15,U41G A75G,0.18
16,U41G A77G,0.2
17,U41G A77U,0.36
18,U41G C44A,0.13
19,U41G C71G,0.33
20,U41G C81U,0.33
21,U41G G52C,0.14
22,U41G U43A,0.28
23,U41G U43C,0.33
